T1: human CD20 (human, UniProt P11836 1-297)
T1 construct: The forward primer starts at codon 2; also called hCD20; CHO-K1-hCD20
T1 sequence: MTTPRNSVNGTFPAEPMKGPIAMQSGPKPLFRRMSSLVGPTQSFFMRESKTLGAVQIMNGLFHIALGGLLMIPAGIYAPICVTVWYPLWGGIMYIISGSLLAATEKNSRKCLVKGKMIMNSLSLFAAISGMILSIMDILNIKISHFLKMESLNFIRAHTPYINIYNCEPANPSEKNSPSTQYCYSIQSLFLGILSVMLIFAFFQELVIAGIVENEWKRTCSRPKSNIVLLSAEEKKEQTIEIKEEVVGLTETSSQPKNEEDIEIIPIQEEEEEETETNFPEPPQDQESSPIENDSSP

T2: mouse CD20 (mouse, UniProt P19437 1-291)
T2 construct: whole, on cells; also called mCD20; CHO-K1-mCD20
T2 sequence (looked up): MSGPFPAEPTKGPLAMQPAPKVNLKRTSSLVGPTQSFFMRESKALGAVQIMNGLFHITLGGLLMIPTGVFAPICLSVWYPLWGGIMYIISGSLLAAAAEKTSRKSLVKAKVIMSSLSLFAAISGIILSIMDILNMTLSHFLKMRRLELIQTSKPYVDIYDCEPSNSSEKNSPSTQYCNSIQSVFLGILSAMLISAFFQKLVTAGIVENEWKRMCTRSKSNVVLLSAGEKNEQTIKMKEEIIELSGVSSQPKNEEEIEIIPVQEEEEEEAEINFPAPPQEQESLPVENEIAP


What follows are binders tested against T1, human CD20 (assay: cell ELISA, crude periplasmic extract, CHO-K1 expressing human CD20 against parental CHO-K1).

Row | Binder | binding result
1 | 2HCD16 (VHH, Whole entry = VHH-AAA-HA-His6 (pMECS construct)) VHH: QVQLQESGGGLVQAGGSLRLSCAASGRTFSRQSMGWFRQAPGKEREFVAVITWSGGSPYYADSVRGRFTISRDNAKNTVYLQMNSLKPEDTAVYYCAAPVSYGSQWLADYWGQGTQVTVSS | binds
2 | 2HCD35 (VHH, Whole entry = VHH-AAA-HA-His6 (pMECS construct)) VHH: QVQLQESGGGLVQAGGSLRLSCAASGRTFSGQSMGWFRQAPGKEREFVAVITWSGGSPYYADSVRGRFTISRDNAKNTVHLQMNSLKPEDTAVYYCAAPVSYGSQWLADYWGQGTQVTVSS | binds

Now from value to binder:

Row | binding result | Binder
3 | binds | 2HCD42 (VHH, Whole entry = VHH-AAA-HA-His6 (pMECS construct)) VHH: QVQLQESGGGLVQAGGSLRLSCAASGRTFSSYAMGWFRQAPGKEREFVAVITWSGGSPYYADSVRGRFTISRDNAKNTVYLQMNSLKPEDTAVYYCAAPVSYGSQWLADYWGQGTQVTVSS
4 | binds | 2HCD22 (VHH, Whole entry = VHH-AAA-HA-His6 (pMECS construct)) VHH: QVQLQESGGGLVQAGDSLRLSCAASGRTFSRQSMGWFRQAPGKEREFVAVITWSGGSPYYADSVKGRFTISRDNAKNTVYLQMNSLKPEDTAVYYCAAPVSYGSQWLADYWGQGTQVTVSS
5 | binds | R3CD7 (VHH, Whole entry = VHH-AAA-HA-His6 (pMECS construct)) VHH: QVQLQESGGGLVQAGGSLRLSCAASGRSFSSVNMGWFRQAPGKEREFVAVIDWSGGSPYYTDSVRGRFTISRDNSKNTVYLQMNSLKPEDTAVYYCAAGVSYGSRWLGDYWGQGTQVTVSS

The binders below were run against T2, mouse CD20 (assay: cell ELISA, crude periplasmic extract, CHO-K1 expressing mouse CD20 against parental CHO-K1).
Description: The library was subjected to 3 consecutive rounds of panning (in solution), performed on stably transfected CHO-K1 cells expressing mouse CD20. A parallel panning was performed on parental (non-transfected CHO-K1) cells to serve as negative control for the calculation of CD20-specific phage enrichment. The enrichment for antigen-specific phages was assessed after each round of panning by comparing the number of phagemid particles eluted from transfected cells with the number of phagemid particles eluted from parental cells. […] In total, 285 colonies (95 from each round of panning) were randomly selected and their crude periplasmic extracts (including soluble VHHs) were analyzed by cell ELISA for specific binding to transfected CHO-K1, as compared to parental cells. […] The 11 different VHHs belong to 2 different groups.
The library was subjected to 2 consecutive rounds of panning (in solution), performed on stably transfected CHO-K1 cells expressing mouse CD20 as described above. Here, the phage population was enriched (for antigen-specific phages) about 2- and 45-fold after 1st and 2nd rounds of panning, respectively. Here, 190 colonies, randomly picked from 2nd round, were tested by cell ELISA as above and 10 colonies scored positive. Based on sequence data, the 10 positive colonies represented 8 different VHHs (FIG. 4, bottom panel). The 8 different VHHs belong to 2 different groups. One of the groups identified here is the same group as one of those identified above.

Row | Binder | binding result
6 | 2MC39 (VHH, Whole entry = VHH-AAA-HA-His6 (pMECS construct)) VHH: QVQLQESGGGLAQAGNSLRISCVASGNTFDTRAMGWFRQAPGKEREFVAAISRSSFNTYYSDSVTGRFTISRDNAKNTVYLQMNSLKPEDTAVYYCAAGKYGMKWRDGADYWGQGTQVTVSS | binds
7 | 2MC51 (VHH, Whole entry = VHH-AAA-HA-His6 (pMECS construct)) VHH: QVQLQESGGGLAQAGNSLRISCVASGNTFDTRAMGWFRQAPGKEREFVAAISRSSFNTYYSDSVTGRFTISRDNAKNTVYLQMNSLKPEDTAVYYCVAGKYGMKWRDGADYWGQGTQVTVSS | binds
8 | 2MC42 (VHH, Whole entry = VHH-AAA-HA-His6 (pMECS construct)) VHH: QVQLQESGGGSVQTGGTLTLSCVASGNTFDTRAMGWFRQAPGEEREFVAAISRSSFNTYYSDSVTGRFTISRDNAKNTVYLQMNSLKPEDTAVYYCAAGKYGMKWRDGADYWGQGTQVTVSS | binds
9 | 2MC82 (VHH, Whole entry = VHH-AAA-HA-His6 (pMECS construct)) VHH: QVQLQESGGGLAQEGGSLRLSCVASGNTFDTRAMGWFRQAPGKEREFVAAISRSSFNTYYSDSVTGRFTISRDNAKNMVYLQMNSLKPEDTAVYYCAAGKYGMKWRDGADYWGQGTQVTVSS | binds
10 | R2MUC70 (VHH, Whole entry = VHH-AAA-HA-His6 (pMECS construct)) VHH: QVQLQESGGGLVQAGGSLRLSCAASGRDFATYSMAWFRQAPGKERESVATISWSGQRTRYADSVKGRFTISRDNAKNTVYLQMNSLKPEDTAVYYCAAPRTWGEFPPTQYDSWGQGTQVTVSS | binds
11 | R3MUC56 (VHH, Whole entry = VHH-AAA-HA-His6 (pMECS construct)) VHH: QVQLQESGGGLVQAGDSLRLSCAASGRDFATYSMAWFRQAPGKERESVATISWSGQRTRYADSVKGRFTISRDNAKNTVYLQMNSLKPEDTAVYYCAAPRTWGEFPPTQYDSWGQGTQVTVSS | binds
12 | R3MUC57 (VHH, Whole entry = VHH-AAA-HA-His6 (pMECS construct)) VHH: QVQLQESGGGLVQAGGSLRLSCAASGRDFATYSMAWFRQAPGEERESVATISWSGQRTRYADSVKGRFTISRDNAKNTVYLQMNSLKPEDTAVYYCAAPRTWGEFPPTQYDSWGQGTQVTVSS | binds
13 | R2MUC85 (VHH, Whole entry = VHH-AAA-HA-His6 (pMECS construct)) VHH: QVQLQESGGGLVQPGGSLRLSCATSGRDFATYSMAWFRQAPGKERESVATISWSGQRTRYADSVKGRFTISRDNAKNTVYLQMNSLKPEDTAVYYCAAPRTWGEFPPTQYDSWGQGTQVTVSS | binds

Continued, values first:

Row | binding result | Binder
14 | binds | R2MUC36 (VHH, Whole entry = VHH-AAA-HA-His6 (pMECS construct)) VHH: QVQLQESGGGLVQAEGSLRLSCAASGRTRDANAMGWFRQAPGKERELVAAISWSGSRTYYADSVKGRFTISRDNVMHTVYLSMNSLKPEDTAVYYCAADRSIEVQIADYDYWGRGTQVTVSS
15 | binds | 2MC38 (VHH, Whole entry = VHH-AAA-HA-His6 (pMECS construct)) VHH: QVQLQESGGGLVQAGESLRISCVASGNTFDTRAMGWFRQAPGKEREFVAAISRSSFNTYYSDSVTGRFTISRDNAKNTVYLQMNSLKPEDTAVYYCVAGKYGMKWRDGADYWGQGTQVTVSS
16 | binds | 2MC20 (VHH, Whole entry = VHH-AAA-HA-His6 (pMECS construct)) VHH: QVQLQESGGGLVQTGGSLRLSCAASGNTFDTRAMGWFRQAPGKEREFVAAISRSSFNTYYSDSVTGRFTISRDNAKNTVYLQMNSLKPEDTAVYYCAAGKYGMKWRDGADYWGQGTQVTVSS
17 | binds | R3MUC75 (VHH, Whole entry = VHH-AAA-HA-His6 (pMECS construct)) VHH: QVQLQESGGGSVQTGGSLRLSCAASGRDFSTYSMGWFRQAPGKERESVATISWSGQRTRYADSVKGRFTISRDNAKNTVYLQMNSLKPEDTAVYYCAAPRTWGEFPPTQYDSWGQGTQVTVSS
18 | binds | R3MUC17 (VHH, Whole entry = VHH-AAA-HA-His6 (pMECS construct)) VHH: QVQLQESGGGLVPAGGSLRLSCAASGRDFATYSMAWFRQAPGKERESVATISWSGQRTRYADSVKGRFTISRDNAKNTVYLQMNSLKPEDTAVYYCAAPRTWGEFPPTQYDSWGQGTQVTVSS
19 | binds | 2MC52 (VHH, Whole entry = VHH-AAA-HA-His6 (pMECS construct)) VHH: QVQLQESGGGLVQAGGSLRLSCVASGRTFNTYSMGWFRQAPGKEREFVASISWSGQRSRYADSVKGRFTISRDNAKNTVYLQMNSLKPEDTAVYYCASPRTWGEFPPTQYDSWGQGTQVTVSS
20 | binds | 2MC57 (VHH, Whole entry = VHH-AAA-HA-His6 (pMECS construct); also called mCD20 Nb) VHH: QVQLQESGGGLVQAGGSLRLSCAASGRDFATYSMAWFRQAPGKERESVATISWSGQRTRYADSVKGRFTISRDNAKNTVYLQMNSLKPEDTAVYYCAMPRTWGEFPPTQYDSWGQGTQVTVSS
21 | binds | R3MUC22 (VHH, Whole entry = VHH-AAA-HA-His6 (pMECS construct)) VHH: QVQLQESGGGLVQAGGSLRLSCAASGRTFSTYSMGWFRQAPGKEREFVAIISWSGQRTRYADSVKGRFTISRDNAKNTVYLQMNSLKPEDTAVYYCAAPRTWGEFPPTQYDSWGQGTQVTVSS
22 | binds | R3MUC66 (VHH, Whole entry = VHH-AAA-HA-His6 (pMECS construct)) VHH: QVQLQESGGGLVQAGGSLRLSCAASGRDFATYSMTWFRQAPGKERESVATISWSGQRTRYADSVKGRFTISRDNAKNTVYLQMNSLRPEDTAVYYCAAPRTWGEFPPTQYDSWGQGTQVTVSS
23 | binds | R2MUC21 (VHH, Whole entry = VHH-AAA-HA-His6 (pMECS construct)) VHH: QVQLQESGGGLVQAGDSLRLSCAASGRDFSTYSMGWFRQAPGKERESVATISWSGQRTRYADSVKGRFTISRDNAKNTVYLQMNSLKPEDTAVYYCAAPRTWGEFPPTQYDSWGQGTQVTVSS
24 | binds | R3MUC58 (VHH, Whole entry = VHH-AAA-HA-His6 (pMECS construct)) VHH: QVQLQESGGGLVQPGGSLRLSCAASGRDFATYSMAWFRQAPGKERESVATISWSGQRTRYADSVKGRFTISRDNAKNTVYLQMNSLKPEDTAVYYCAAPRTWGEFPPTQYDSWGQGTQVTVSS

— patent US20190092871A1 (VIB VZW, published 2019)
